Broadly, the IC50 is the midpoint of a concentration-inhibition curve. The low end stands for higher potency, the high end for lower potency.

T1: rat VPAC1 receptor (rat, UniProt P30083 31-459)
T1 sequence (looked up): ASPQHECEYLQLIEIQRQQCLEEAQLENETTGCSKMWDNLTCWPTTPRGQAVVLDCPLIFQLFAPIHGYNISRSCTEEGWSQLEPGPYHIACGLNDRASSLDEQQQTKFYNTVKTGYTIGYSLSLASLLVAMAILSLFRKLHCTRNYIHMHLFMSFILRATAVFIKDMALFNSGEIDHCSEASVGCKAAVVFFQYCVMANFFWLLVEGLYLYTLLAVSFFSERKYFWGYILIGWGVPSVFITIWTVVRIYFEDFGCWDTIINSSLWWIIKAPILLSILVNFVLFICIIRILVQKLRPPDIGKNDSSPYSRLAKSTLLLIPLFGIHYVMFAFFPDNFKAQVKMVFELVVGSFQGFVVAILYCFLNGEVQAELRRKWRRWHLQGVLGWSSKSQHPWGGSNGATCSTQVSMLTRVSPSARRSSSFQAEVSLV

T2: rat VPAC2 receptor (rat, UniProt P35000 23-437)
T2 sequence (looked up): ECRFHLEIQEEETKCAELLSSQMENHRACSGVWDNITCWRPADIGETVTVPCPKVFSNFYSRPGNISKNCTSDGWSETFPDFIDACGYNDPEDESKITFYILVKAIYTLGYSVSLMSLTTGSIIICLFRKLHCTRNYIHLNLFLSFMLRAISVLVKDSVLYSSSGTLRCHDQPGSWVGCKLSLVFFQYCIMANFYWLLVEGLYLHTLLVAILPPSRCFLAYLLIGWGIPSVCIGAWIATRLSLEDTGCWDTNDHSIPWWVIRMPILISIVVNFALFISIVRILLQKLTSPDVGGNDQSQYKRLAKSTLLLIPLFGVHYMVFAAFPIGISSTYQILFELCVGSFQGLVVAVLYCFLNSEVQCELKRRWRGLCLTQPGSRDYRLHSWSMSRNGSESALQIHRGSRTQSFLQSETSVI

T3: human VPAC2 receptor (human, UniProt P41587 24-438)
T3 sequence (looked up): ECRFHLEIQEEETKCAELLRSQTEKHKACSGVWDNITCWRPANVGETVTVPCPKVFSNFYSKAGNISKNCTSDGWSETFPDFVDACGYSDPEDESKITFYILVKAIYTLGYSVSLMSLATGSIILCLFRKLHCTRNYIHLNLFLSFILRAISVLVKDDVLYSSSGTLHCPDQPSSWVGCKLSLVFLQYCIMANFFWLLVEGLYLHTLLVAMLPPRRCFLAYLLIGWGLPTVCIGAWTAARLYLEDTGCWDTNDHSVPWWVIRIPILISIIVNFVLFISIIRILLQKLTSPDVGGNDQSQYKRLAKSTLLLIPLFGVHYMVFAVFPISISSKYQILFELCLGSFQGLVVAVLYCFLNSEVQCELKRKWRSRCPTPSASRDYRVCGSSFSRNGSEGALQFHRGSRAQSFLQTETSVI

B1: P551 (peptide)
peptide: HSDAVFTEQYTXLRXQLAXXXYLQSIXXXGGPSSGAPPPC
modifications: C6-HSDAVFTEQY(OMe)TOrnLRAibQLAAbuAibOrnYLQSIOrnK(CO(CH2)2SPEG20K)OrnGGPSSGAPPPC(PEG20K)-NH2
B2: P555 (peptide)
peptide: B1 peptide with X28C
modifications: C6-HSDAVFTEQY(OMe)TOrnLRAibQLAAbuAibOrnYLQSIOrnC(PEG20K)OrnGGPSSGAPPPC(PEG20K)-NH2
B3: P572 (peptide)
peptide: B1 peptide with X29C
modifications: C6-HSDAVFTEQY(OMe)TOrnLRAibQLAAbuAibOrnYLQSIOrnOrnC(PEG20K)GGPSSGAPPPC(PEG20K)-NH2
B4: P553 (peptide)
peptide: B1 peptide with S25X, X28C
modifications: C6-HSDAVFTEQY(OMe)TOrnLRAibQLAAbuAibOrnYLQAibIOrnC(PEG20K)OrnGGPSSGAPPPC(PEG20K)-NH2
B5: P562 (peptide)
peptide: B1 peptide with L17V, X19A, X29C
modifications: C6-HSDAVFTEQY(OMe)TOrnLRAibQVAAAibOrnYLQSIOrnOrnC(PEG20K)GGPSSGAPPPC(PEG20K)-NH2
B6: P523 (peptide)
peptide: HSDAVFTEQYTXLRXQLAXXXYLQSIXXGGPSSGAPPPCC
modifications: C6-HSDAVFTEQY(OMe)TOrnLRAibQLAAbuAibOrnYLQSIOrnOrnGGPSSGAPPPC(PEG20K)C(PEG20K)-NH2
B7: P525 (peptide)
peptide: B6 peptide with L23X, S25X
modifications: C6-HSDAVFTEQY(OMe)TOrnLRAibQLAAbuAibOrnYAibQAibIOrnOrnGGPSSGAPPPC(PEG20K)C(PEG20K)-NH2
B8: P570 (peptide)
peptide: B6 peptide with S25X
modifications: C6-HSDAVFTEQY(OMe)TOrnLRAibQLAAbuAibOrnYLQAibIOrnOrnGGPSSGAPPPC(PEG30K)C(PEG30K)-NH2

Residue numbers refer to the chain shown, from its start. *1 amine or outer side, *2 acyl side, *3 side chain or, on linkers, in order; H or OH if unused. [ ]: non-standard residue; d: D form. Tyr(OMe) = methoxy tyrosine, COc1ccc(C[C@H](N[*:1])C(=O)[*:2])cc1; Orn = NCCC[C@H](N)C(=O)O; Abu = CC[C@H](N)C(=O)O; Aib = CC(C)(N)C(=O)O

The first test deals with T1, rat VPAC1 receptor. Kind of test: cell-based or functional assay.
For the molecule HSDAVFTEQYTXLRXQLAXXXYLQSIXCXGGPSSGAPPPS (C6-HSDAVFTEQY(OMe)TOrnLRAibQLAAbuAibOrnYLQSIOrnC(PEG40K)OrnGGPSSGAPPPS-NH2) [P539], the “Rat VPAC1 Receptor: DiscoveRx: (EC50; nM)” value (“Rat VPAC1 Receptor” below) turned out to be 32.6 nM.

As to B1, the “Rat VPAC1 Receptor” value is 172 nM.

As to B2, the “Rat VPAC1 Receptor” value amounted to 68.9 nM.

As for B3, the “Rat VPAC1 Receptor” value is 94.5 nM.

Take B4: the “Rat VPAC1 Receptor” value turned out to be 262 nM.

As for B5, the “Rat VPAC1 Receptor” value worked out at 393 nM.

B6: the “Rat VPAC1 Receptor” value worked out at 20.4 nM.

Turning to B7, the “Rat VPAC1 Receptor” value was found to be 1140 nM.

For the molecule B8, the “Rat VPAC1 Receptor” value came out at 86.7 nM.

As for C6-HSDAVFTEQ[Tyr(OMe)]T[Orn]LRC(PEG 40 kDa)QLA[Abu][Aib][Orn]YLQ[Aib]I[Orn][Orn]GGPSSGAPPPS-NH2 [P547], the “Rat VPAC1 Receptor” value came out at 76.2 nM.

A further test has as its target T2, rat VPAC2 receptor. Put plainly: cell-based or functional assay.
With HSDAVFTEQYTXLRXQLAXXXYLQSIXCXGGPSSGAPPPS (C6-HSDAVFTEQY(OMe)TOrnLRAibQLAAbuAibOrnYLQSIOrnC(PEG40K)OrnGGPSSGAPPPS-NH2) [P539], the “Rat VPAC2 Receptor: DiscoveRx: (EC50; nM)” value (“Rat VPAC2 Receptor” below) came out at 21 nM.

As for B1, the “Rat VPAC2 Receptor” value was found to be 13.2 nM.

As to B2, the “Rat VPAC2 Receptor” value turned out to be 32.5 nM.

As to B3, the “Rat VPAC2 Receptor” value was found to be 10.8 nM.

With B4, the “Rat VPAC2 Receptor” value was determined as 22 nM.

For the molecule B5, the “Rat VPAC2 Receptor” value was determined as 52.5 nM.

On to B6, for which the “Rat VPAC2 Receptor” value amounted to 5.3 nM.

As for B7, the “Rat VPAC2 Receptor” value was found to be 44 nM.

For the molecule B8, the “Rat VPAC2 Receptor” value was found to be 21.3 nM.

As to C6-HSDAVFTEQ[Tyr(OMe)]T[Orn]LRC(PEG 40 kDa)QLA[Abu][Aib][Orn]YLQ[Aib]I[Orn][Orn]GGPSSGAPPPS-NH2 [P547], the “Rat VPAC2 Receptor” value came to 150 nM.

Another test concerns the target T3, human VPAC2 receptor. Kind of test: cell-based or functional assay.
Consider HSDAVFTEQYTXLRXQLAXXXYLQSIXCXGGPSSGAPPPS (C6-HSDAVFTEQY(OMe)TOrnLRAibQLAAbuAibOrnYLQSIOrnC(PEG40K)OrnGGPSSGAPPPS-NH2) [P539], for which the “Human VPAC2 Receptor: Alphascreen (EC50; nM)” value came out at 10.7 nM and the “Human VPAC2 Receptor: DiscoveRx (EC50; nM)” value was 47.3 nM.

B1: the “Human VPAC2 Receptor: Alphascreen (EC50; nM)” value turned out to be 15.6 nM.

As for B2, the “Human VPAC2 Receptor: Alphascreen (EC50; nM)” value came out at 22.5 nM and the “Human VPAC2 Receptor: DiscoveRx (EC50; nM)” value amounted to 8.1 nM.

Take B3: the “Human VPAC2 Receptor: Alphascreen (EC50; nM)” value was determined as 11.2 nM.

For B4, the “Human VPAC2 Receptor: Alphascreen (EC50; nM)” value is 15 nM.

Turning to B5, the “Human VPAC2 Receptor: Alphascreen (EC50; nM)” value was found to be 30.2 nM and the “Human VPAC2 Receptor: DiscoveRx (EC50; nM)” value is 24.2 nM.

With B6, the “Human VPAC2 Receptor: Alphascreen (EC50; nM)” value came out at 5.8 nM.

In the case of B7, the “Human VPAC2 Receptor: Alphascreen (EC50; nM)” value amounted to 25 nM.

For the molecule B8, the “Human VPAC2 Receptor: Alphascreen (EC50; nM)” value is 13.4 nM and the “Human VPAC2 Receptor: DiscoveRx (EC50; nM)” value came to 4.5 nM.

Take C6-HSDAVFTEQ[Tyr(OMe)]T[Orn]LRC(PEG 40 kDa)QLA[Abu][Aib][Orn]YLQ[Aib]I[Orn][Orn]GGPSSGAPPPS-NH2 [P547]: the “Human VPAC2 Receptor: Alphascreen (EC50; nM)” value came to 62 nM.

The next test deals with T3, human VPAC2 receptor. Put plainly: filter binding, VPAC2 cell membranes, displacement of 125I-VIP. The protocol:
Binding assays: Membrane prepared from a stable VPAC2 cell line (see Example 3) or from cells transiently transfected with human VPAC1 or PAC1 are used.
The assay plate is filled with 25 μL assay buffer, 25 μL membranes (2.5 μg) suspended in assay buffer, 25 μL agonist in assay buffer, and 25 μL tracer (about 40000 cpm) in assay buffer. The filled plate is incubated for 1 hour with shaking.
The transfer from assay plate to filter plate is conducted. The blocking buffer is aspirated by vacuum filtration and washed two times with flush buffer. 90 μL is transferred from the assay plate to the filter plate. The 90 μL transferred from assay plate is aspirated and washed three times with 200 μL flush buffer. The plastic support is removed. It is dried for 1 hour at 60° C. 30 μL Microscint is added. The count is performed.
(In a radioligand displacement assay an active substance lowers the binding of a labelled ligand.)
HSDAVFTEQYTXLRXQLAXXXYLQSIXCXGGPSSGAPPPS (C6-HSDAVFTEQY(OMe)TOrnLRAibQLAAbuAibOrnYLQSIOrnC(PEG40K)OrnGGPSSGAPPPS-NH2) [P539] returned a half-inhibitory concentration (IC50) of 13.5 nM.

Turning to B1, the IC50 came out at 16.6 nM.

B2: the 50% inhibitory concentration (IC50) is 15.4 nM.

B3 showed an IC50 of 14.9 nM.

The molecule B4 returned a half-maximal inhibitory concentration (IC50) of 21.7 nM.

In turn, B5 showed an IC50 of 42.8 nM.

For B6, the IC50 turned out to be 4.8 nM.

In the case of B7, the 50% inhibitory concentration (IC50) turned out to be 41.8 nM.

B8 returned a half-inhibitory concentration (IC50) of 4.1 nM.

Molecule C6-HSDAVFTEQ[Tyr(OMe)]T[Orn]LRC(PEG 40 kDa)QLA[Abu][Aib][Orn]YLQ[Aib]I[Orn][Orn]GGPSSGAPPPS-NH2 [P547] yielded an IC50 of 5.6 nM.

These data come from patent US20080234198A1 (Eli Lilly, published 2008).
